For assay [1], the target named is HIV-1 NL4-3 CA P17C/R18L/T19C/W184A/M185A (disulfide-crosslinked pentamer) (HIV-1 NL4-3). Briefly: crystal structure.
The target of assay [2] is HIV-1 NL4-3 CA N21C/A22C/W184A/M185A (disulfide-crosslinked pentamer) (HIV-1 NL4-3). In words: crystal structure.

Usually stoichiometry N stands for a count of units in the complex or per binding partner. In assay [1], “HIV-1 NL4-3 CA P17C/R18L/T19C/W184A/M185A (disulfide-crosslinked pentamer) (natural protein)” had a stoichiometry N of 5.

In the case of “HIV-1 NL4-3 CA N21C/A22C/W184A/M185A (disulfide-crosslinked pentamer) (natural protein)”, in assay [2], the stoichiometry N was found to be 5.

For the origin of these results see PMC3075868.
